Results published in PMC5714199.

Experiments:
Assay in all cases: SPR
[1] = target: TopA CTD (Streptomyces coelicolor, UniProt Q9X909 610-952)
[2] = target: CTDΔED (Streptomyces coelicolor, UniProt Q9X909 610-950, del951-952)
[3] = target: TopA881 (Streptomyces coelicolor, UniProt Q9X909 1-881, del882-952)
[4] = target: TopA wild type (Streptomyces coelicolor, UniProt Q9X909 1-952)

Measured: binding result

B1: sstopA-biot 120 nt ssDNA (63% GC) (ssDNA)
DNA: not shown
binds: all assays above
